Results reported in the DeepSol protein solubility set.

Assay: soluble on expression in E. coli; label from the status in PepcDB or PDB records

Sequence | soluble on expression in E. coli
GPGSMARITVELLRRRAEHNEGCLSNLKEIALHQQDIEKIDLIGDACRQLEIIYLCNNYISRIEGLRHLKWLKYLNLAVNNITVIDGLQGCEALERLDLTLNFIAEPTSVQTLLANPFLESLHLTGNPCTKTEGYRAYVIHSLPQLKELDGDEIIRAERITARQAEDVVIEVAEEEAVRVREAERIKQEMLAKGIDPFPPKYNDKGERVYGHTPEERLQILHEQQEMERKKREEQSTPQPGSIAALHQELKRQQQPSQRLTAEEERSKFGRLLLRNEPRVPFHMNQDDAAEFVLTVDPGKFISTTLLSVQVEVDVVRVFIKGKLLQVPVEDELAADAAQVQRSTTTGQLKVMVPYAPEVQERRGGARARLRGLREVTEKASSATGTSAASTTPPPTASPPKVAEPPTRSTLLEIEGRMRGSSSPSLSINQPGTTGTLSSSGKNTTTASSGIVKSVKDISPVPSTMKVSADAATLASQSMTAVLTPTTAASSH | soluble
MAQYKGAASEAGRAMHLMKKREKQREQMEQMKQRIAEENIMKSNIDKKFSAHYDAVEAELKSSTVGLVTLNDMKAKQEALVKEREKQLAKKEQSKELQMKLEKLREKERKKEAKRKISSLSFTLEEEEEGGEEEEEAAMYEEEMEREEITTKKRKLGKNPDVDTSFLPDRDREEEENRLREELRQEWEAKQEKIKSEEIEITFSYWDGSGHRRTVKMRKGNTMQQFLQKALEILRKDFSELRSAGVEQLMYIKEDLIIPHHHSFYDFIVTKARGKSGPLFNFDVHDDVRLLSDATVEKDESHAGKVVLRSWYEKNKHIFPASRWEPYDPEKKWDKYTIR | soluble
MGSDKIHHHHHHMQSTASHTKAPGKSHPVVTEDQYFSVSPLMLLADNAALFSVYLRQGNNFVLYTHAGEMFTHRHKQRLAENGVTEVWLKESQRHAYTAHVEQHLGNVLADDSLPAEARAGALYGIASDALQDVFAQHGAGALPADTARRARQLVEHIISFLKVPNGITALGRFIAHDYHSWTHSLNTTFYTLGILQSYGLPDESMAHIGLGAMLHDIGKAEIPSSILLKPGPLTASERQCINTHPLMGVARLAQTELPQTTLNCILFHHEKLDGSGYPSGIGGTAIPLAVRAVTVADIYDALASERPYAAARPPFAVLQLMRGEMADELDMDVFKNFVLMLSNAGLTKT | not soluble
MGSDKIHHHHHHAALYARWAPTHSAAPAAEQQRKVLFWYDPMYPNTRFDKPGKSPFMDMDLVPKYADEEHAAAGAPGVRIDPTQTQNLGVKTAAVTRGPLRYAQTFPANISYNEYQYVIMQARAAGFINKVYPLTVGDKVKQGTPLLELTIPDWVEAQSEYLLLQETGGTATQVEGILERLRLAGMPDDDIRRLKATRKIQTRFTLTAPIDGVITAFDLRAGMNIAKDNVVAKIQGMDPVWVSVAVPESIAWLIKDASQFSIQVPAWPGKTFRISKWTLLPSVDSATRTLQLRLQVNNPDEALKPGMNAYLQLTSESAPMLLIPSKALIDSGSEQRVITVDNEGRFVPKRVQVFHESAGVTAIRSGLQEGEKVVARGLFLIDSEANIAGALERMRAQAPDAAASAAHAH | not soluble
MGSDKIHHHHHHMIGDEPIRIRQLQALNILAESGTMSLTAKAMNISQPAVSRLLSDLSKELGYPLFSRSGRRLTLTREAQYLLPEIQRIFGAMGQIRNLRQNIQDGTSGHLKIACLPGFSTSHLPGVVADFLAARPKTTLTIEPDRPERILDWVIGEQYDCGITDGFRSHHALDSKTIPIRCVCIFPEGHPLEAKSVIHPEDLAGERIAHDRFGSEFYLRLRDILDAEGIAMDNFIETRQFTCACELVSKGVCVSVVSELDAQEYIGKGVSFRPFSANITHQLSLVWPRHTPTSILTLEFLGLFEKSLEPYAMTET | not soluble
MPPSLRKAVAAAIGGGAIAIASVLITGPSGNDGLEGVSYIPYKDIVGVWTVCHGHTGKDIMLGKTYTKAECKALLNKDLATVARQINPYIKVDIPETTRGALYSFVYNVGAGNFRTSTLLRKINQGDIKGACDQLRRWTYAGGKQWKGLMTRREIEREVCLWGQQ | not soluble
MAHHHHHHMLECNTNSALMEAHFGVVHADQLVPRALSSHAAAAQLSGASKPDKTPTPSLPPGPFIVMGLYGRNVLVLIADGEGQTAVQIHVTRGVAEVAETFRKVAGTPLPPPALPLEPLSVPASPPESTMVAEAAAASRLVANDEVSQERPQAPETERREDQAGPVPATVTCIVAEETDAFMAPAADIAAAAAAEAQLCKDKAAGMRGVEGVCKEVGTATPVADEERHGGPPPTKEVILTDLHKAGETAAHACSSVVVEISQGVSISAASAPRTWRWSSTTSSSASSSSFDSHASQRLRQQQQQSRLEQIGEEQAHRSGPSTGRASAPSTPTDKVVEEVAEAWPTYGAQLLESAEEVTVVPAVTPATDDAPPLMTLPAAEHAMTSQNGEGVFQAEAAIGVVEAANTKTPGEKDVHYHDDGVVSADASLHGQSLLQLPEKDLSAPEGESEKHLQLGSSLAVQFFADHTPSLLPASSSMPRPSQQQHTGDAQEASLGTEVSFDEDGVDAHRLPATLESDCEERVQHVSGADADDVAGPVIAFQASSLLASVEQRGWANQAPPVRHVAIPAGEEVAVTTAMARSATAFTPSYSPPPASPADLRAAPRVWGAQGTSYPTSGPSPCAAAVGLQHHSAATPFTNFLKAYAVYVLGTHGAASGGESKQLRNGTAPHMNECAAGAGEASRGVAELASILDFYREQPLARIMEATAIQRRCRAAWNEVIASTPASAAAQVGSDVEVCKLKASASTTVFTELCVDELVSLLAIVHYPSPRQDG | not soluble
MAETPNQRITEINLNKEMRTSFLDYAMSVIVARALPDVRDGLKPVHRRILYAMNDLGMTSDKAYKKSARIVGEVIGKYHPHGDTAVYFTMVRMAQDFSYRNMLVDGHGNFGSVDGDMAAAMRYTEARMSKISMELLRDINKDTIDYADNYDGSEREPVILPARFPNLLVNGSSGIAVGMATNIPTHHLGEVIDGVLALSHDPEITIRDLMEYIPGPDFPTAGMIMGRSGIRRAYESGRGSITVRGRVDIEEKKNGKETIVITEIPYQVNKARLVERIAELAREKKIDGITSLNDESDRSGMRIVIEVRRDISASVIVNNLFKMTALQTTFGINMLALVDNHPKVLNLKEILYYYLEHQKVVIRRRTEFELRKAEARAHILEGLRIALDNIDAIIKLIRGSKTSDVAKEGLMTQFNLSDKQAQAILDMRLQRLTGLEREKIEEEYQNLVALINDLKAILADDERILEIIREELEEIKVKYADKRRTEILAGDLVSLEDEDLIPEEEVAITLTKRGYIKRLPLSTYRSQRRGGRGIQGMSTHEDDFVEHLVATSTHDTLLFFTNTGKVYRSKGYEVPEYGRTAKGIPIINLLGIESQEQVNAVINLSEFTDDSYLFFTTKHGVVKRTTLSQFAKIRQSGLRAVELRENDELISVQMTDGSKNMIIATKHGQSIYFPEENIRVMGRTAAGVRGIRLREDDEVIGMEVLEDDEKVLVVTEKGYGKQTPASQYPLRNRGGMGVKTVTITEKNGNLVAMKTVTGEEDLMLMTVSGVLIRFEIDTVSQTGRSAMGVKLIRLDEDEKVATVAKVPKEEDEVELEEEIDETLITQVPDESFEDAPGSDIEE | not soluble
MFEINKQIGIYIHFPWCVRKCPYCDFNSHPIKDDSYLSEQYYQKLIADFDTHLDDLQAREVISIFIGGGTPSLFKAEYLDKVLQHITKNTKISINCEITLEMNPGTVERGSILSYQNIGINRISLGVQSFQDDKLKILGRIHNCENVYTTIDEIKNSKISNFNIDIMHGLPNQSFDDGIFDITQAIAMQPTHISWYQLTIEPNTLFAAKRPKFPDEEILESIEIAGKEALAHAGFKQYEVSAFAKNTLRSIHNSNYWMFGDYIGIGAGAHSKITNLKTKQIKRVWKHKHPKIYTQTDKFIKDSNIVTQDEIIYEFMLNTLRLKNGFKLSEFEQQTFLSSNIISQKLQLGIDKGLLELNANQIKPTAKGYLFLNDCINIFS | not soluble
MSQIIWGAYAQRNTEDHPPAYAPGYKTSVLRSPKNALISIAETLSEVTAPHFSADKFGPKDNDLILNYAKDGLPIGERVIVHGYVRDQFGRPVKNALVEVWQANASGRYRHPNDQYIGAMDPNFGGCGRMLTDDNGYYVFRTIKPGPYPWRNRINEWSPAHIHFSLIADGWAQRLISQFYFEGDTLIDSCPILKTIPSEQQRRALIALEDKSNFIEADSRCYRFDITLRGRRATYFENDLT | soluble
MSLVWTKTTYMGINCWKSVSDMWNYQEILSELQPSLVIEFGTRYGGSAVYFANIMRQIGQPFKVLTVDNSHKALDPRARREPDVLFVESSSTDPAIAEQIQRLKNEYPGKIFAILDSDHSMNHVLAEMKLLRPLLSAGDYLVVEDSNINGHPVLPGFGPGPYEAIEAYEDEFPNEGHHHHHH | not soluble
MGSDKIHHHHHHLAKAELTQIPVSQMVIGLTVKLPLSWTNHPFFRSKVKLEQQVQIEMIKGLDVSFVYVIEGHDLLPHVSEPVEIEQPEEVVEQEIDYRPLAKKSMRISQQRFVKSVNDSRTVFGKIVSDPEGAYREAATLVEDLVDHLYESETPQLTIVGSGEIDVSVTQHGISVAVLSMMIAHSLVLSKKDVRDIALGSLFHDIGKLKVPDAIRRKKRGDLSDHEINFLKMHPNFGYDMLNRTGLFPEAMLDIVLHHHEFIDGSGFPNQLTEAKILLTTQVVSLANDYETLLNLHRTPQIALGILFKTHSGKHADNLIAVLVKILGIYPPGTIVRLTDDSIAKVMMTTADVKQPHVWSCNLSGGEPSFRFLINEDVQVQEVMKLDELTDGAVKTLQANNPISFYFNNFDH | not soluble
MARLSDLIEAFIKQLIDDTDGTIEIQRNELASQFNCVPSQINYVIDTRFTTERGYYVESRRGGGGYIKITRVSIGHEGKNYLMHIINSMGDSISQQSAHVFINNFVDHNVVTEKEAMLLKAATSDKALAAVPVESRGQIRASILKNMLVCLLV | soluble
MSLLPGPLLIPSDSSTELTQTVLEGESISCFQVGGEKRLCLPQVLNSVLREFTLQQINTVCDELYIYCSRCTSDQLHILKVLGILPFNAPSCGLITLTDAQRLCNALLRPRTFPQNGSVLPAKSSLAQLKETGSAFEVEHECLGKCQGLFAPQFYVQPDAPCIQCLECCGMFAPQTFVMHSHRSPDKRTCHWGFESAKWHCYLHVNQKYLGTPEEKKLKIILEEMKEKFSMRSGKRNQSKTDAPSGMELQSWYPVIKQEGDHVSQTHSFLHPSYYLYMCDKVVAPNVSLTSAVSQSKELTKTEASKSISRQSEKAHSSGKLQKTVSYPDVSLEEQEKMDLKTSRELCSRLDASISNNSTSKRKSESATCNLVRDINKVGIGLVAAASSPLLVKDVICEDDKGKIMEEVMRTYLKQQEKLNLILQKKQQLQMEVKMLSSSKSMKELTEEQQNLQKELESLQNEHAQRMEEFYVEQKDLEKKLEQIMKQKCTCDSNLEKDKEAEYAGQLAELRQRLDHAEADRQELQDELRQEREARQKLEMMIKELKLQILKSSKTAKEEGHHHHHH | not soluble
MGSDKIHHHHHHMTEKWLSIVGIGEDGLQGLSAIARSLVDRAKVIVGGDRHLAMLPTDDQREKIVWTSPISISVDEIIQRRGQSICVLASGDPMCYGIGVTLMRRIPVSEMTIIPAPSAFSLACARMGWSLTEVETLSLNGRPSSLLQSYIYPKARLLILSGGKDTPAIVAKILTNRGYGGSEITVLERMGGTHERIVEGTAASWSETEVAALNAIAVYCIADAGVIPLPRLPGLPDNAYHHDGQLTKREVRAITLAALAPTPGQLLWDVGAGCGSISIEWMRSNARCRAIAIEQNSSRLLYIADNAATLGTPNVQIIEGKAPHALKDLPAPDAIFIGGGVTATGLFDVCWEALRPGGRLVANVVTVEGEQTLFQWHERVGGDLTRVAIQRTEPIGKFLGWRAMAPVTQWVVVK | not soluble
